# Experimental data: patent US12534533B2, “Anti-chemokine like receptor 1 humanized antibodies and their therapeutic applications” (OSE IMMUNOTHERAPEUTICS, priority 2019, dated 2026)
# T1: CMKLR1 receptor (CHO-K1 CMKLR1 Gi cells) (Homo sapiens, UniProt Q99788)
# T1 construct: host or cells: CHO-K1
# T1 sequence (Q99788 1-373): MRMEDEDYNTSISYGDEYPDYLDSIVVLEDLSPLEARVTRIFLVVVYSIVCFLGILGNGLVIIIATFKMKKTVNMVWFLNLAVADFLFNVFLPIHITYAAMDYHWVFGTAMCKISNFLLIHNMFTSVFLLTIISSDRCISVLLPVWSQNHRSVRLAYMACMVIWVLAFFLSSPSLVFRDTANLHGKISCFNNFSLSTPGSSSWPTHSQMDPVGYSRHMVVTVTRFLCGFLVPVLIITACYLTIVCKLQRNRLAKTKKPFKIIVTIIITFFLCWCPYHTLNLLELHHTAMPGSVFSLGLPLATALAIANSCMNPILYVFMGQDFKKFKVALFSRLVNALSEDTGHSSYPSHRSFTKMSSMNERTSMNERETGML
# B1: 2G1: parental chimeric anti-CMKLR1 antibody: heavy chain variable domain SEQ ID No. 37, light chain variable domain SEQ ID No. 49 (antibody, V domains shown)
# VH: EVQLVASGGGLVQPGGSLKLSCAASGFTFSSYGMSWVRQTPDRRLELVATINRYGGSTYYPDSVKGRFTISRDNAKNTLYLQMSSLKSEDTAMYYCPRLIYYGNEGDSWGQGTTLTVSS
# VL: QIVLTQSPAIMSASPGEKVTMTCSASSSVSFMHWYQQKSGTSPKRWIYDTTKLTSGVPARFSGSGSGTFYSLTISSMEAEDAATYYCQQWNSKPPLTFGPGTKLELKR
# Columns and labels:
# [1] = target: T1, CMKLR1 receptor (CHO-K1 CMKLR1 Gi cells); assay: competition with Chemerin in the production of cAMP by CMKLR1 receptor; format: cell-based; conditions: antibody 1 μM to 1 nM, chemerin 2 nM; FIG. 18A
# Method: The day before the experiment CHO-K1 CMKLR1 Gi cells (Discover'X ref 95-0080C2) were plated in pre-warmed cell reagent then plated in a 96-well plate at 100 μl/well of cells as (Discover'X ref 15-103) and incubated 24 hours at 37° C., in a 5% CO2 humidified incubator for 24 hours.
# For the detection cAMP, antibody reagent and cAMP working detection solution was added to the plate for 1 hour at room temperature, then cAMP solution A was added, and cells incubated 3 hours at room temperature in the dark. Bioluminescence was read with a plate reader with 0.5s integration.
# [2] = tested on: Caspase-3 in PMN from healthy volunteers; assay: Caspase-3 expression in PMN by Western Blot; format: cell-based, human; conditions: coated Ab at 10 μg/mL; 4 h, 6 h, 11 h; FIG. 26B
# Method: (§1) Neutrophils were isolated from blood of healthy volunteers and cultured for 24 h (Mortality analysis), or 4 h, 6 h, 11 h (Caspase-3 assay), or 5 h (ROS assay) on coated Iso ctrl (cross), chimeric anti-ChemR23 2G1 (square) or different humanized versions of the 2G1 (diamonds). Mortality of PMN was analyzed by incubating PMN with specific markers of the mortality and viability and then counted by picture analysis.
# PMN from healthy volunteers were incubated in culture medium with coated Ab at 10 μg/mL for different times and collected for Caspase-3 staining analyzed by Western Blot. The intensity of Capase-3 expression was calculated on WB.
# [3] = tested on: psoriasis induced by Aldara cream; format: in vivo, mice
# Method: FIG. 6. Effect of anti-CMKLR1 agonist on an autoimmune disease such as mice psoriasis model. Aldara treated mice for 4 to 6 consecutive days were injected intra-peritoneally with: 2G1 (●) or isotype control antibody (x). A. thicknesses and B weight.
# Aldara® cream which is known to induce psoriasis in mice was used on male C57Bl/6 mice (8-10-week old). Mice received a daily topical dose of Aldara. Treatments (anti-CMKLR1 agonist or control compound) were injected intra-peritoneally: […]
# [4] = tested on: lesions in the central nervous system induced by MOG peptide; assay: autoimmune encephalomyelitis experimental model (EAE); format: in vivo
# Description: Lesions in the central nervous system were induced by injection of the immunogenic MOG peptide combined with adjuvants.
# [5] = tested on: ROS production by PMN from healthy volunteers; assay: ROS test in PMN; format: cell-based, human; conditions: coated Ab at 10 μg/mL, after 5 h; FIG. 26C
# Method: as §1
# PMN from healthy volunteers were incubated in culture medium with coated Ab at 10 μg/mL for 24 h or 5 h and stained either with a dead/viability kit (LIVE/DEAD (Invitrogen)) or a specific marker of reactive oxygen species (ROS) respectively. The percentages of positive cells were obtained by analyzing the pictures with ImageJ software.
molecule,measurement,setting,value
B1,Chemerin-induced inhibition of forskolin-dependent cAMP production,[1],could not revert this inhibition of production
same,caspase-3 cleavage,[2],increases caspase-3 cleavage
same,thickness of the skin,"[3]; after Aldara administration, e.g. day 15, FIG. 6A",reduces the thickness of the skin
same,weight of the animals,"[3]; mouse, in vivo",not impacted
same,Weight variation overtime,"[4]; curative administration, 1 mg/kg from clinical score 2, FIG. 32A",does not lead to the reduction of the weight
same,illness score lower than control,[4]; ten-day posttreatment,approximately 30%
same,illness score,"[4]; vs control antibody, FIG. 32B",significantly reduced
same,ROS production by PMN,[5],increase the ROS production
